Values quoted from earlier work in publication PMC7611479.

Legend:
guanylin (Homo sapiens) = guanylin (Homo sapiens) (UniProt Q02747)
[1] = molecular target: uroguanylin (Homo sapiens) (UniProt Q16661)

Question: Which Kd (guanylin (Homo sapiens)) does the source give for GC-C ECD (from UniProt P25092) here?
Answer: 10 nM

Question: And the Kd [1]?
Answer: 1 nM
